Assay results from patent US20120141501A1 (Chugai, published 2012).

Tests used:
[1] = target: T1, mature TGFα (R&D Systems, 239-A) (human, UniProt P01135 40-89); test: ELISA on immobilized TGFα (R&D Systems, 239-A)
[2] = target: T1, mature TGFα (R&D Systems, 239-A); test: ELISA on immobilized mature TGFα, COS-7 supernatant
[3] = target: T1, mature TGFα (R&D Systems, 239-A); test: ELISA on immobilized mature TGFα (R&D Systems, 239-A)

B1: EP19 monoclonal antibody (mouse hybridoma anti-EREG antibody) (antibody, V domains shown)
VH: EVQLQQSGPELEKPGASVKISCKASGYSFTGYNMNWVKQSNGKSLEWIGNIDPYYGAASYNQKFKGKATLTVDKSSSTAYMQLKSLTSEDSAVYYCARSQLPYWYFDVWGAGTTVTVSS
VL: DIVMTQSPSSLTVTAGEKVTMSCKSSQSLLNSGNQKNYLTWYQQKPGQPPKLLIYWASTRESGVPDRFTGSGSGTDFTLTISSVQAEDLAVYYCQNDYSYPYTFGGGTKLEIK
notes: Hybridoma antibody from WO 2008/047723; The variable region entries may include leader residues; also called EP19 antibody
binding result [1]: binds

B2: #2-20 recombinant human chimeric antibody (#2-20 VH/VL with human IgG1 constant region) (antibody)
heavy: not shown
light: DIQMTQTTSSLSASLGDRVTISCRSSQDIRNYLNWYQQKPDGTVKLLIYYTSRSHSGVPSRFSGSGSGTDYSLTISNLEQEDIATYFCQQGNMFPFTFGGGTKLEIKRTVAAPSVFIFPPSDEQLKSGTASVVCLLNNFYPREAKVQWKVDNALQSGNSQESVTEQDSKDSTYSLSSTLTLSKADYEKHKVYACEVTHQGLSSPVTKSFNRGEC
notes: Transiently expressed in COS-7 and tested as culture supernatant
binding result [2]: binds

B3: #2-20 mouse chimeric IgG2a recombinant antibody (#2-20 VH/VL with mouse IgG2a constant region) (antibody)
heavy: DVQLQESGPGLVKPSQSLSLTCTVTGYSITSDYAWNWIRLFPGNKLEWMGFINYSGNTSYNPSLKSRISITRDTSKNQFFLKLNSLTTDDTATYYCARGGLSRFPYWGQGTLVTVSAAKTTAPSVYPLAPVCGGTTGSSVTLGCLVKGYFPEPVTLTWNSGSLSSGVHTFPALLQSGLYTLSSSVTVTSNTWPSQTITCNVAHPASSTKVDKKIEPRVPITQNPCPPLKECPPCAAPDLLGGPSVFIFPPKIKDVLMISLSPMVTCVVVDVSEDDPDVQISWFVNNVEVHTAQTQTHREDYNSTLRVVSALPIQHQDWMSGKEFKCKVNNRALPSPIEKTISKPRGPVRAPQVYVLPPPAEEMTKKEFSLTCMITGFLPAEIAVDWTSNGRTEQNYKNTATVLDSDGSYFMYSKLRVQKSTWERGSLFACSVVHEGLHNHLTTKTISRSLGK
light: DIQMTQTTSSLSASLGDRVTISCRSSQDIRNYLNWYQQKPDGTVKLLIYYTSRSHSGVPSRFSGSGSGTDYSLTISNLEQEDIATYFCQQGNMFPFTFGGGTKLEIKRADAAPTVSIFPPSSEQLTSGGASVVCFLNNFYPKDINVKWKIDGSERQNGVLNSWTDQDSKDSTYSMSSTLTLTKDEYERHNSYTCEATHKTSTSPIVKSFNRNEC
notes: Transiently expressed in COS-7 and tested as culture supernatant; also called recombinant mouse chimeric IgG2a antibody; mouse IgG2a antibody
binding result [2]: binds

B4: mouse hybridoma anti-TGFα antibody #2-20 (antibody, V domains shown)
VH: DVQLQESGPGLVKPSQSLSLTCTVTGYSITSDYAWNWIRLFPGNKLEWMGFINYSGNTSYNPSLKSRISITRDTSKNQFFLKLNSLTTDDTATYYCARGGLSRFPYWGQGTLVTVSA
VL: DIQMTQTTSSLSASLGDRVTISCRSSQDIRNYLNWYQQKPDGTVKLLIYYTSRSHSGVPSRFSGSGSGTDYSLTISNLEQEDIATYFCQQGNMFPFTFGGGTKLEIK
notes: Mouse IgG purified from hybridoma supernatant; also called #2-20 antibody; mouse #2-20 antibody
binding result [3]: binds
